In the RNAGym collection of RNA variant scans (doi:10.1021/acssynbio.7b00057):

B1: Pistol ribozyme (parent)
chain: GGGUCGUUGUUCCAUAAUCGCGUGGAUAUGGCACGCAAGUUUCUACCGGGCACCGUAAAUGUCCGACUGGAGCCGUUCGGGCGGCUAUAAACAGACCUCAGGCCCGAAGCGUGGCGGCACCUGCCGCCGGUGGUAAAAAAGAUCGGAAGAGCACACGUCU

Variants of: B1
Test: aptazyme ON/OFF ratio, guanine; higher = stronger switching; co-transcriptional cleavage with and without guanine

Variant | aptazyme ON/OFF ratio
U7A U8G U10G U11C C13G | 1.29
U7A U8G U10C C12G C13U | 1.28
U7A U8G U10C C12G C13A | 1.19
U7A U8G U10C C12G C13G | 1.05
U7A U8G U10G C12A C13G | 1.12
U7A U8G U10G C12A C13A | 1.04
U7A U8G U10G C12A C13U | 1.15
U7A U8G U10G U11A C12G C13U | 1.46
U7A U8G U10G U11A C12G C13A | 1.24
U7A U8G U10G U11A C12G C13G | 1.46
U7A U8G G9U U10G C12A C13U | 1.15
U7A U8G G9U U10G C12A C13A | 1.27
U7A U8G G9U U10G C12A C13G | 1.14
U7A U8G G9U U11C C13U | 1.38
U7A U8G G9U U11C C13G | 1.06
U7A U8G G9U U11C C13A | 1.26
U7A U8G G9U U10G U11G C12G C13G | 1.24
U7A U8G G9U U10G U11G C12G C13A | 1.16
U7A U8G G9U U10G U11G C12G C13U | 0.953
U7A U8G G9U U11A C12G C13A | 1.11
U7A U8G G9U U11A C12G C13U | 1.39

Variant | aptazyme ON/OFF ratio
U7A U8G G9U U11A C12G C13G | 1.26
U7A U8G U10G U11G C12A C13G | 1.47
U7A U8G U10G U11G C12A C13U | 1.41
U7A U8G U10G U11G C12A C13A | 1.22
U7A U8G G9U U11C | 1.45
U7A U8G G9U U11G | 1.94
U7A U8G G9U U11A | 2.05
U7A U8G U10G C12G | 1.21
U7A U8G U10G C12U | 1.37
U7A U8G U10G C12A | 1.17
U7A U8G U10G U11G C12G C13A | 1.45
U7A U8G U10G U11G C12G C13G | 1.03
U7A U8G U10G U11G C12G C13U | 1.18
U7A U8G G9U U11G C12G | 1.56
U7A U8G G9U U11G C12A | 1.38
U7A U8G G9U U11G C12U | 1.26
U7A U8G U11A C13G | 1.4
U7A U8G U11A C13A | 1.31
U7A U8G U11A C13U | 1.11
U7A U8G G9U U11C C12G C13A | 1.16
U7A U8G G9U U11C C12G C13G | 1.32

Variant | aptazyme ON/OFF ratio
U7A U8G G9U U11C C12G C13U | 1.27
U7A U8G U10C U11A C13U | 1.21
U7A U8G U10C U11A C13A | 1.45
U7A U8G U10C U11A C13G | 1.21
U7A U8G U10C C13A | 1.45
U7A U8G U10C C13G | 1.32
U7A U8G U10C C13U | 1.4
U7A U8G U10G U11A C12U C13A | 1.21
U7A U8G U10G U11A C12U C13G | 0.975
U7A U8G U10G U11A C12U C13U | 1.15
U7A U8G U11A C12A C13U | 1.07
U7A U8G U11A C12A C13G | 1.3
U7A U8G U11A C12A C13A | 1.41
U7A U8G U11C C12G C13A | 1.02
U7A U8G G9U U10C U11G C12U C13A | 1.21
U7A U8G G9U U10C U11G C12U C13G | 1.31
U7A U8G G9U U10C U11G C12U C13U | 1.53
U7A U8G U10C U11C C12A C13A | 1.61
U7A U8G U10C U11C C12A C13U | 1.49
U7A U8G U10C U11C C12A C13G | 1.3
U7A U8G U10A | 2.44

Variant | aptazyme ON/OFF ratio
U7A U8G U10G | 1.25
U7A U8G U10C | 1.75
U7A U8G G9U U10G C13U | 1.23
U7A U8G G9U U10G C13G | 1.32
U7A U8G G9U U10G C13A | 1.3
U7A U8G G9U U10G U11G C13G | 1.19
U7A U8G G9U U10G U11G C13A | 1.16
U7A U8G G9U U10G U11G C13U | 1.24
U7A U8G G9U U10G U11C C12G | 1.16
U7A U8G G9U U10G U11C C12U | 1.04
U7A U8G G9U U10G U11C C12A | 1.19
U7A U8G U10A C12U C13A | 1.32
U7A U8G U10A C12U C13G | 1.25
U7A U8G U10A C12U C13U | 1.42
U7A U8G G9U U10C U11G C13G | 1.38
U7A U8G G9U U10C U11G C13U | 1.31
U7A U8G G9U U10C U11G C13A | 1.28
U7A U8G U10G U11A C13U | 1.3
U7A U8G U10G U11A C13A | 1.4
U7A U8G U10G U11A C13G | 1.27
